From the DeepSol protein solubility set

assay: soluble on expression in E. coli; label from the status in PepcDB or PDB records

Sequence | soluble on expression in E. coli
MTPLRVFRKTTPLVNTIRLSLLPLAGLSFSAFAAQVNIAPGSLDKALNQYAAHSGFTLSVDASLTRGKQSNGLHGDYDVESGLQQLLDGSGLQVKPLGNNSWTLEPAPAPKEDALTVVGDWLGDARENDVFEHAGARDVIRREDFAKTGATTMREVLNRIPGVSAPENNGTGSHDLAMNFGIRGLNPRLASRSTVLMDGIPVPFAPYGQPQLSLAPVSLGNMDAIDVVRGGGAVRYGPQSVGGVVNFVTRAIPQDFGIEAGVEGQLSPTSSQNNPKETHNLMVGGTADNGFGTALLYSGTRGSDWREHSATRIDDLMLKSKYAPDEVHTFNSLLQYYDGEADMPGGLSRADYDADRWQSTRPYDRFWGRRKLASLGYQFQPDSQHKFNIQGFYTQTLRSGYLEQGKRITLSPRNYWVRGIEPRYSQIFMIGPSAHEVGVGYRYLNESTHEMRYYTATSSGQLPSGSSPYDRDTRSGTEAHAWYLDDKIDIGNWTITPGMRFEHIESYQNNAITGTHEEVSYNAPLPALNVLYHLTDSWNLYANTEGSFGTVQYSQIGKAVQSGNVEPEKARTWELGTRYDDGALTAEMGLFLINFNNQYDSNQTNDTVTARGKTRHTGLETQARYDLGTLTPTLDNVSIYASYAYVNAEIREKGDTYGNLVPFSPKHKGTLGVDYKPGNWTFNLNSDFQSSQFADNANTVKESADGSTGRIPGFMLWGARVAYDFGPQMADLNLAFGVKNIFDQDYFIRSYDDNNKGIYAGQPRTLYMQGSLKF | soluble
MLRIAYRLLWRALLPFALLRLWWRGRKEPGYRQHVGERLGFYRPRANPDHPLLWVHAVSVGETRAAQPLIDALLARFPQHDVLLTHMTPTGRRTGAEFAAQRNGRVIQAYLPYDLAGAVDRFLRHFQPRLGLLMETEIWPVLIERAHHAGVPMVLVNGRLSERSHRRTARLGQAARETYAQLAAVLAQTPDDADRYRSLGVPRVRVTGNLKFDITPHVDQIMMGRALRDALGGRAVWVAASTREGEEPLLLDAWHAHRAQHAGRRHPLLILVPRHPQRFDEVAQLAGLKGLRVARRSALSLSAAEAPDAAGVLDADILLGDSMGEMALYYAAAQAAFIGGSLLPMGGQNLIEACAVGTPVVIGPHTFNFAQATRDAVAAGACVQVEDAACAVRVIDQWLSDADAREAASRAALAFAATHGGATARTVEAVASLVLPSLLEHHHHHH | not soluble
MSANLVTPKWGYIGKMPAKGDFVKDGISPEFANRWHDWQQAVIAVSKEQLGDTWNDYFLTAPVWHFALDVSYMDDATYIGSMIPSVDACGRYFFFTVVRAVKGKAAQYWAQSGWTEDSQTLALSVLDDEFVFDVWHRSMQEKCELVSEVSICNEEMALLYQSPISTVFSFSTEAKQNTLLNHLIESQQRKPCFWWTEGSTHIESCMFVSTGLPSIGQFSAMLDGRWQMWSW | not soluble
MSDDGSDTSFEEPHGDFDYTLLFEKFNKEVPKMEEVMKAAKKFGASHRHLINKFILEPSMSAKKMNLMFAKHLTTAIWKRHPDTVMQIQTNREEARQLSKLIVKTMNDDEGKGPKPFRPWRFVISTDEKSPTEFVTMTGCGRNSSVISEASDLTKVERALLLVILEEMISSDGTVQMDWVHSQIRHEPCKMPGPKCDIFMAKMMRQRYFLMTDENEVAEITPRILVELEPWLRAKFTGDLKTCELCRKIISRSVYTAECQKCHALCHFNCFKNATIISHQDNVECQKCNQNLSLNEVLKQIDTKKATGVPRSRDTVARSPSPDSDVPKAPSRTQRAKSKSKTPAPVDSDDDMTITPRPTRGKRNQRVPDSDSE | not soluble
MKLIFLSGVKRSGKDTTADFIMSNYSAVKYQLAGPIKDALAYAWGVFAANTDYPCLTRKEFEGIDYDRETNLNLTKLEVITIMEQAFCYLNGKSPIKGVFVFDDEGKESVNFVAFNKITDVINNIEDQWSVRRLMQALGTDLIVNNFDRMYWVKLFALDYLDKFNSGYDYYIVPDTRQDHEMDAARAMGATVIHVVRPGQKSNDTHITEAGLPIRDGDLVITNDGSLEELFSKIKNTLKVL | soluble
MSLNEQRFFRFLRERIGLDVESVGAPMVERALRQRCVAAGAMDLDDYWLRLQQSADEQQALIEAVIVPETWFFRYPESFTALASLAHKRLAQLAGARPLRLLSLPCSTGEEPYSLAMALFDAGMAPGAFLVDGMDISPSSVAKAGQAVYGRNAFRGSELGFRERYFDALDEGHRLHERVRQQVSLRVGNVLDPALASRDGLYDFVFCRNLLIYFDVPTQQRVFEVLKRLLHPQGVLFIGPAEGSLLARMGMRPLGIAQSFAYVRHEGDSAPLAAAPAQTAKRAFTTLPAPVYPQPSVPLPRSRRVLPVAARPARAREHSHEGASELLAGIARLANAGASEQARSECQRYLSQYPPSAQVYYWLGLLSDTEGDAQQALSHYRKALYLEPQHPEALVHLAALLAAQGDLAGARRLQERAARAGRESEREGHHHHHH | soluble
MNQSADAKPPKPDGRVTRSVTVRKLGPGANKEKQESDNSQKKKTVNAAAQKADTSSKRNSGNPQKPKKPKHEAIKVSTRRLSASSKPPPPAPQNVPKMNSFVGNGNTRMIMVQTTPQAKKLEAEMKLRMQNKGESPEASLLVLESRTPEPTVQQVLEELQNDVVNPKSSTTPEGYSFELRNLKTPEIPAMPTPLACSPAAARNSPVVKKIQNHVPNVTLVPSEPREPSLRKLHLGTLKLKFLAFPLTTGFKKLQKLQDPLARIKLATEKLKERRAQLDTQKKHTMFLPEAFIGPHFNETIASGFYALFNASHFQVHYNSEGKRLGSGTMCVLKNQMNGARDWFAGNTWRAVKMMYMRTRDAEKHKNSEVKLFVEKLPDWSTEQLEEKLRNEFKLSDFQLLYDYKGNNLRSAIVLLKYPDAINLCNSIRSNPTVFGKEWHPRVFEVLDVAVQPPIDK | not soluble
MAKVYGSLIDNETRCTHYYSSLDVIAIKFKCCNKYYPCYKCHNEHVSHTIERWAENEFDEKAIMCGVCKHEMRIRDYMMVEMCPRCKAHFNSRCKFHYHLYFEVLEHHHHHH | not soluble
MDLRSALEKTNIIKSYKLHFLIRYTTSRFEVKEPFLAYLHMARQKDKLLPKCITPPNKKADPFTNDVSSYFTHTHTHTPCSPSLVYTYVNTTEKSPSKSPKHKNILPFNFTK | not soluble
GMKLQTTIQHEPKDGSGFDRGLREFFEYRDTGVNEATGGMFGAHVIRAIPGKEAKPTWHTHTVGFQLFYVLRGWVEFEYEDIGAVMLEAGGSAFQPPGVRHRELRHSDDLEVLEIVSPAGFATSVVDLEEARKP | soluble
LTLGNTTSSVILTNYMDTQYYGEIGIGTPPQTFKVVFDTGSSNVWVPSSKCSRLYTACVYHKLFDASDSSSYKHNGTELTLRYSTGTVSGFLSQDIITVGGITVTQMFGEVTEMPALPFMLAEFDGVVGMGFIEQAIGRVTPIFDNIISQGVLKEDVFSFYYNRDSENSQSLGGQIVLGGSDPQHYEGNFHYINLIKTGVWQIQMKGVSVGSSTLLCEDGCLALVDTGASYISGSTSSIEKLMEALGAKKRLFDYVVKCNEGPTLPDISFHLGGKEYTLTSADYVFQESYSSKKLCTLAIHAMDIPPPTGPTWALGATFIRKFYTEFDRRNNRIGFALAR | soluble
GSDALVGRLVKSSWDMKSLDLHSMLVETMSKSDHVLIVGFGRGGQTVGRVLAQEDIPYFALDLDIARVQVARSAGEPVSFGDAKRREVLEAAGLGRAKMVVVTLNNMHETQHVLDNVLSMYPNMPVYVRATNDDYVKTFTDIGAEEAVSDTKETGLVLAGYAMLGNGASYRHVYQTMANIRHSRYAALEGLFVGSDDEAGFGENGETVRHAFPLAAEAYAVGKTVGTLPMAAYGIKLLFVRRRTGRIENPDASFTLEGGDVLVVAGKKEEIISFENWSLQGI | not soluble
MAYSKIRQPKLSDVIEQQLEFLILEGTLRPGEKLPPERELAKQFDVSRPSLREAIQRLEAKGLLLRRQGGGTFVQSSLWQSFSDPLVELLSDHPESQFDLLETRHALEGIAAYYAALRSTDEDKDRIRELHHAIELAQESGDLDAESEAVLQYQIAVTEAAHNVVLLHLLRCMEPMLAQNVRQNFELLYARREMLPLVSTHRTRIFEAIMAGKPEEAREASHRHLAFIEEIMLDRSREESRRERALRRLEQRKN | not soluble
MNRDLPVLRALRSLPDKVVGEALVSNDAISMRYDVDASTGKVVRPSHDLYGQSISGKVLIFKNTKGGVATGWALLNLKSRGTAPIALVCDTTNPVFVQGAALAGLPIMDGFRESPRSAVRTGDVVELDGISGELKVLRRGAGGQLEHHHHHH | not soluble
MSKIYVLDTNVLLQDPNAIFSFEENEVVIPAVVLEEVDSKKRYMDEVGRNARHVSKLIDALRQKGRLHEHVPLDTGGTLRIELNHRSFHQLQEIFIEKTNDNRILAVAKNLSLEEETKENGRPVILVSKDVLVRVKADAIGLLAEDFLNDRVVDNDEMY | not soluble
MLLTLNALPFVLVNCGGKKKPAPPPKAAAKPMAAPAGGAGGAGGAGGAGKSDSFDSKKQDIPSSKKEEPVAPKKEDEGNYEELAIPQ | not soluble
MAHHHHHHMQAQMMLGQALEHYAMMDFANLVLEQCWDICYDSQLTRPELAGGALPDVKAQKMDACARKCVARHFEVLTLLSATRELREKERMQGLPPGTLTSM | not soluble
MAIVPFKRDPTFYPSPKMAMKAPPEDLAYVACLYTGTGINRADFIAVVDVNPKSETYSKIVHKVELPYINDELHHFGWNACSSALCPNGKPNIERRFLIVPGLRSSRIYIIDTKPNPREPKIIKVIEPEEVKKVSGYSRLHTVHCGPDAIYISALGNEEGEGPGGILMLDHYSFEPLGKWEIDRGDQYLAYDFWWNLPNEVLVSSEWAVPNTIEDGLKLEHLKDRYGNRIHFWDLRKRKRIHSLTLGEENRMALELRPLHDPTKLMGFINMVVSLKDLSSSIWLWFYEDGKWNAEKVIEIPAEPLEGNLPEILKPFKAVPPLVTDIDISLDDKFLYLSLWGIGEVRQYDISNPFKPVLTGKVKLGGIFHRADHPAGHKLTGAPQMLEISRDGRRVYVTNSLYSTWDNQFYPEGLKGWMVKLNANPSGGLEIDKEFFVDFGEARSHQVRLSGGDASSDSYCYP | soluble
MHHQSVLHSGYFHPLLRSWQTAASTVSASNLIYPIFVTDVPDDVQPIASLPGVARYGVNQLEEMLRPLVEAGLRCVLIFGVPSRVPKDEQGSAADSEDSPTIEAVRLLRKTFPSLLVACDVCLCPYTSHGHCGLLSENGAFLSEESRQRLAEVALAYAKAGCQVVAPSDMMDGRVEAIKAALLKHGLGNRVSVMSYSAKFASCFYGPFRDAAQSSPAFGDRRCYQLPPGARGLALRAVARDIQEGADMLMVKPGLPYLDMVREVKDKHPELPLAVYQVSGEFAMLWHGAQAGAFDLRTAVLETMTAFRRAGADIIITYFAPQLLKWLKEE | soluble
MCGISGEFRFDNQAADLAAVERITHHLAPRGPDAWGFHAQGPIALGHRRLKIMDLAEASGQPMIDPDLGLAMVFNGAIYNYPELRGELESLGYRFFSGGDTEVLLKGYHAWGADLLPRLNGMFAFAVWERDRQRLFLARDRLGIKPLYYSLDRSRLRFASSLPALLKGGDIASDLDPQALNFYLNFHAVVPAPHTLLEGVKKLPPATWMSVDLDGSCEQRTWWTLDYGPRPDERELTLDDWQERVLDGLREAVAIRQRAAREVGVLLSGGVDSSLLVGLLHEAGVDNLLTFSIGFEDAGGERGDEFQYSDLIAERYHTRHHRLRIGEHEVIEQLPAAFRAMSEPMVSHDCIAFYLLAREVSKHCKVVQSGQGADELFAGYHWYPKVDGADDAFAAYRAAFFDRDHEEYLATVGERFRVEDVAGRFVRDHFASPGAEAAVDKALRLDSTIMLVDDPVKRVDNMTMAWGLEARVPFLDYRLAELSARIPARFKLGDGGKQVLKGAARKVIPSEVIDRPKGYFPVPGLKHLQGRTREWVRELLLDPSQDRGLFQPAIFDRLLSDPDGDLTPLRG | not soluble
